Target: T1, recombinant ectodomain of human IFN-λ receptor 1 (hIFN-λR1) (human, UniProt Q8IU57 21-228)
T1 construct: for the receptor neither is said; also called IFNLR1; source: recombinant; plasmids transfected into Expi293-F cells; purification of the receptor not described
T1 sequence (looked up): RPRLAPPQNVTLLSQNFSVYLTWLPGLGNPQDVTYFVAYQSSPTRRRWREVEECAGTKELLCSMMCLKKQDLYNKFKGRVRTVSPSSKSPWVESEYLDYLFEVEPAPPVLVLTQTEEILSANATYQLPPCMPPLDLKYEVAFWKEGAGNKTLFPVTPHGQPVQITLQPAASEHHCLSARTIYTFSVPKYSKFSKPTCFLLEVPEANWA
Test: SPR; Biacore T200; His-tagged hIFN-λ3-WT or hIFN-λ3-DE1 immobilised on a Series S NTA chip to about 200 RU; analyte hIFN-λR1 ectodomain at 6.25, 12.5 and 25 nM, 60 s at 10 µL/min, 120 s dissociation; 1X PBS-P+ with 50 nM EDTA; global fit to a 1:1 model
Conditions: both partners purified

B1: wild-type human interferon-λ3 (hIFN-λ3-WT), His-tagged (ligand, UniProt Q8IZI9 22-196, looked up)
chain: VPVARLRGALPDARGCHIAQFKSLSPQELQAFKRAKDALEESLLLKDCKCRSRLFPRTWDLRQLQVRERPVALEAELALTLKVLEATADTDPALGDVLDQPLHTLHHILSQLRACIQPQPTAGPRTRGRLHHWLHRLQEAPKKESPGCLEASVTFNLFRLLTRDLNCVASGDLCV
notes: human IFN-λ3, full-length cDNA in a modified pcDNA3.1 with a TEV site and C-terminal 6xHis tag; also called wild-type hIFN-λ3; source: Expi293-F cells, transfected, from the culture supernatant, purified (Ni-NTA, SEC); not shown: His6, C-terminal, kept
B1: binds.
